Test results reported in PMC7340788, “Structure of the yeast Swi/Snf complex in a nucleosome free state” (Nature Communications, 2020).

T1: Swi3 (S. cerevisiae, UniProt P32591 1-825)
T1 construct: Swi3, subunit of the S. cerevisiae Swi/Snf complex; endogenous protein; two copies (chains A and B) in the model; also called Swi3A; Swi3B; source: endogenous, S. cerevisiae; purified as part of the Swi/Snf complex through Snf6-3Flag (ANTI-FLAG M2 resin, Superose 6)
T1 sequence (looked up): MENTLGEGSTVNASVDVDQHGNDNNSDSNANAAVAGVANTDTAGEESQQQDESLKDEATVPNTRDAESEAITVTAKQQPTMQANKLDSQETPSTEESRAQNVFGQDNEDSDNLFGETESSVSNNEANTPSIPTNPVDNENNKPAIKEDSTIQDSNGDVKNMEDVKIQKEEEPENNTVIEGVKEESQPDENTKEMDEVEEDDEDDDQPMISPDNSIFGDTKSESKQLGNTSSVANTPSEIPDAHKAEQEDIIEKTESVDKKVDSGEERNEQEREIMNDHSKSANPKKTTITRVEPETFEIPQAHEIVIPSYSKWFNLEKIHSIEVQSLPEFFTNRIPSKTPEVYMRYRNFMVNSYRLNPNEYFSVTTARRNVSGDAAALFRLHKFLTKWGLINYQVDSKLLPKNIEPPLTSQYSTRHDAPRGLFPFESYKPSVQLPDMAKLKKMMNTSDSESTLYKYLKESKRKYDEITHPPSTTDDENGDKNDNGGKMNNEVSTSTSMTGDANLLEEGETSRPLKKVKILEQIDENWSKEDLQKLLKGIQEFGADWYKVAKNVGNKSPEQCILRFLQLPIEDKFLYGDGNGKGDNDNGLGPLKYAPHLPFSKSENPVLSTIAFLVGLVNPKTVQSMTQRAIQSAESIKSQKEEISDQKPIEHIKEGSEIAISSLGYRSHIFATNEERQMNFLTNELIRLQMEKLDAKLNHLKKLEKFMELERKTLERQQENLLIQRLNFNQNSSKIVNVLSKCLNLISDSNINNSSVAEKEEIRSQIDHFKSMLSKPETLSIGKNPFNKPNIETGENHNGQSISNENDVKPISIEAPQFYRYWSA

B1: Swi1 (natural protein, S. cerevisiae, UniProt P09547 1-1314, looked up)
chain: MDFFNLNNNNNNNNTTTTTTTTNNNNTNNNNTNNNNNPANNTNNNNSTGHSSNTNNNTNNNNTNTGASGVDDFQNFFDPKPFDQNLDSNNNNSNSNNNDNNNSNTVASSTNFTSPTAVVNNAAPANVTGGKAANFIQNQSPQFNSPYDSNNSNTNLNSLSPQAILAKNSIIDSSNLPLQAQQQLYGGNNNNNSTGIANDNVITPHFITNVQSISQNSSSSTPNTNSNSTPNANQQFLPFNNSASNNGNLTSNQLISNYAASNSMDRSSSASNEFVPNTSDNNNNSNNHNMRNNSNNKTSNNNNVTAVPAATPANTNNSTSNANTVFSERAAMFAALQQKQQQRFQALQQQQQQQQNQQQQNQQPQQQQQQQQNPKFLQSQRQQQQRSILQSLNPALQEKISTELNNKQYELFMKSLIENCKKRNMPLQSIPEIGNRKINLFYLYMLVQKFGGADQVTRTQQWSMVAQRLQISDYQQLESIYFRILLPYERHMISQEGIKETQAKRIFLQQFLQELLKKVQQQQQAAALANANNNINSASSAPTPAAPGASVPATAAPGTEAGIVPVSANTPKSLNSNININVNNNNIGQQQVKKPRKQRVKKKTKKELELERKEREDFQKRQQKLLEDQQRQQKLLLETKLRQQYEIELKKLPKVYKRSIVRNYKPLINRLKHYNGYDINYISKIGEKIDSNKPIFLFAPELGAINLHALSMSLQSKNLGEINTALNTLLVTSADSNLKISLVKYPELLDSLAILGMNLLSNLSQNVVPYHRNTSDYYYEDAGSNQYYVTQHDKMVDKIFEKVNNNATLTPNDSNDEKVTILVDSLTGNQLPTPTPTEMEPDLDTECFISMQSTSPAVKQWDLLPEPIRFLPNQFPLKIHRTPYLTSLKKIKDEIDDPFTKINTRGAEDPKVLINDQLSTISMILRNISFSDNNSRIMSRNFYLKRFISDLLWLVLIHPENFTCNRKILNFKKDLVIVLSNISHLLEIASSIDCLLILILVISFGQPKLNPMASSSSFGSESLTFNEFQLQWGKYQTFGVDILAKLFSLEKPNLNYFKSILLNKNTGNNLYDRNSNNNHKDKKLLRRLLNLYNDNNKNNNNRHNLLNDVVSFLFSAIPLQQVLSQSADPSLLIDQFSPVISQSLTSILVIVQKILPLSNEVFEISENNSDSNSNNNGNKDSSFNFNKNLPFVWLSSEENIGSGLLKLSEIILNINNSTSKNTLLQQQNYSKVLLPSINISCVQLIKCLVEKSICFENCLNNDPEILKKIASIPNLFPTDLEIFQLFTNPSVDIQIINQYQLLYNLKNDILTNLE
notes: Swi1, subunit of the S. cerevisiae Swi/Snf complex; endogenous protein; Only part of the chain is modelled (C-terminus with seven ARM repeats, α1, β1); For cryo-EM the complex was cross-linked with 1 mM BS3; source: endogenous, S. cerevisiae; purified as part of the Swi/Snf complex through Snf6-3Flag (ANTI-FLAG M2 resin, Superose 6)

Key:
Assay in all cases: cryo-EM structure; endogenous Swi/Snf complex purified as a whole through Snf6-3Flag, nucleosome-free, cross-linked with 1 mM BS3, 20 mM HEPES pH 7.4, 350 mM NaCl; 4.1 Å average, 2.9 Å for the base module
Conditions in all cases: both partners purified
[1] = molecular target: T2, Snf2 (S. cerevisiae, UniProt P22082 1-1703)
T2 construct: Snf2, ATPase-containing subunit of the S. cerevisiae Swi/Snf complex; endogenous protein; Only the preHSA domain and the HSA helix are seen in the map; the ATPase domain is absent from the structure; For cryo-EM the complex was cross-linked with 1 mM BS3; source: endogenous, S. cerevisiae; purified as part of the Swi/Snf complex through Snf6-3Flag (ANTI-FLAG M2 resin, Superose 6)

[2] = molecular target: B1
[3] = molecular target: T1, Swi3

T2 sequence (P22082 whole entry, the tested form may be a part): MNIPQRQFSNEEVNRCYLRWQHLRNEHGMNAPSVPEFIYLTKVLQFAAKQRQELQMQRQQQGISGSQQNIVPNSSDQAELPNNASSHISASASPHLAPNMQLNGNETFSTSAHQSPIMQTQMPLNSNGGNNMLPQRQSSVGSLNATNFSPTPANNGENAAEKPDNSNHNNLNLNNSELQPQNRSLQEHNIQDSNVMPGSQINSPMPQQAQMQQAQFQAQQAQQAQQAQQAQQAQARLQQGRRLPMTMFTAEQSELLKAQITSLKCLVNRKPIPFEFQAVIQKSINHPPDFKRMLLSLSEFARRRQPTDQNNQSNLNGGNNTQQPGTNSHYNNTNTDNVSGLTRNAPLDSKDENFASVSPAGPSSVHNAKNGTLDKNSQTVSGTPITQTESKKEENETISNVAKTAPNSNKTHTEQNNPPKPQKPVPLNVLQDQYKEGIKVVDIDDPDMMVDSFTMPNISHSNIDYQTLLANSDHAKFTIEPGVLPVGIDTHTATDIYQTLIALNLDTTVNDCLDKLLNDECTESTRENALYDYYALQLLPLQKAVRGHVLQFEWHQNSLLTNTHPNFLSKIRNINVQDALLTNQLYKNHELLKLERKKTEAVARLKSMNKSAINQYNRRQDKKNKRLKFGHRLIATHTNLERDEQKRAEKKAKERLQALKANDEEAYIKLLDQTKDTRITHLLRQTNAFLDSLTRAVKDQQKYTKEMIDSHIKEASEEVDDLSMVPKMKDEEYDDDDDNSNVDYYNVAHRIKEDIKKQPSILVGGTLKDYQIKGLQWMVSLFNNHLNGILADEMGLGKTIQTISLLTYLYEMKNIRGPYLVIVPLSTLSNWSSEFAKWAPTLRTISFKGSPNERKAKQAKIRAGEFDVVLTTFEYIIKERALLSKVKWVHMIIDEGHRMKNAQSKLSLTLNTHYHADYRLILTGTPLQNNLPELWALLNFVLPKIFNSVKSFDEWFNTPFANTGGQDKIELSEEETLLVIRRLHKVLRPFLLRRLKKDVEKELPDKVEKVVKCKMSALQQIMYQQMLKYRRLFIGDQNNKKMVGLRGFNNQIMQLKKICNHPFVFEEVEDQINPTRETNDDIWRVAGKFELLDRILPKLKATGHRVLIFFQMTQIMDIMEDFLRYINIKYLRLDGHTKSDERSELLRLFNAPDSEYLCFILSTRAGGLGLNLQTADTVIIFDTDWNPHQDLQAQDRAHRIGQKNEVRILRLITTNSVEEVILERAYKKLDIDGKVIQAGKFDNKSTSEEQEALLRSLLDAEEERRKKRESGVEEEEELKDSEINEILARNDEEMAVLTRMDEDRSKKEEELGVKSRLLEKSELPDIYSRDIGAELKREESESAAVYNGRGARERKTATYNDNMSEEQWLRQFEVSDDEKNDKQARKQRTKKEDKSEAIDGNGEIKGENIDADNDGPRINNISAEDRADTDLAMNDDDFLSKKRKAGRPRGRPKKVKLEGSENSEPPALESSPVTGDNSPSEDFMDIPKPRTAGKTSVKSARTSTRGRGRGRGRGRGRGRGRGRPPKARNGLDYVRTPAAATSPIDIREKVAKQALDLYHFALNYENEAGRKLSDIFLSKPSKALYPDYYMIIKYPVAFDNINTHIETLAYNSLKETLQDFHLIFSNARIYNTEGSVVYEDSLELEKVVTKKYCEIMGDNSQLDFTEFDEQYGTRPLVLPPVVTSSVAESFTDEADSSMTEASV

binding result [1]	binding result [2]	binding result [3]	Binder
binds	binds		Snf5 (natural protein, S. cerevisiae, UniProt P18480 1-905, looked up, Snf5, subunit of the S. cerevisiae Swi/Snf complex; endogenous protein; For cryo-EM the complex was cross-linked with 1 mM BS3; source: endogenous, S. cerevisiae; purified as part of the Swi/Snf complex through Snf6-3Flag (ANTI-FLAG M2 resin, Superose 6)) MNNQPQGTNSVPNSIGNIFSNIGTPSFNMAQIPQQLYQSLTPQQLQMIQQRHQQLLRSRLQQQQQQQQQTSPPPQTHQSPPPPPQQSQPIANQSATSTPPPPPAPHNLHPQIGQVPLAPAPINLPPQIAQLPLATQQQVLNKLRQQAIAKNNPQVVNAITVAQQQVQRQIEQQKGQQTAQTQLEQQRQLLVQQQQQQQLRNQIQRQQQQQFRHHVQIQQQQQKQQQQQQQHQQQQQQQQQQQQQQQQQQQQQQQQQQQQQQQQQQQQQGQIPQSQQVPQVRSMSGQPPTNVQPTIGQLPQLPKLNLPKYQTIQYDPPETKLPYPTYWSDKKADTDTLLYEQIIQRDKINKYSLIRETNGYDPFSIYGFSNKEYISRLWHTLKYYQDLKNTRMKSITSTSQKIPSASIWGNGYSGYGNGITNTTTRVIPQVEVGNRKHYLEDKLKVYKQAMNETSEQLVPIRLEFDQDRDRFFLRDTLLWNKNDKLIKIEDFVDDMLRDYRFEDATREQHIDTICQSIQEQIQEFQGNPYIELNQDRLGGDDLRIRIKLDIVVGQNQLIDQFEWDISNSDNCPEEFAESMCQELELPGEFVTAIAHSIREQVHMYHKSLALLGYNFDGSAIEDDDIRSRMLPTITLDDVYRPAAESKIFTPNLLQISAAELERLDKDKDRDTRRKRRQGRSNRRGMLALSGTSASNTSMNGVHNTVAAGNASSLPPGEILLPDIADIPRTFRTPVPSTLMPGGVDVGPSVESYELRNTTTYKSRPDRPKPVSPPCYIIDHIPGHSLLLSIKLPGKVNTKEEFAAAPNDTSSGTNAMLPSPESLKTKLNSNIRAGVTIPSIPNPIANHTVTNSPNPTLQPVIPGGAASKSVPTPSLPIAPPVAPHDSEATLLTNSNNGSSNNNTQNT
binds	binds	binds	Snf12 (natural protein, S. cerevisiae, UniProt P53628 1-566, looked up, Snf12, subunit of the S. cerevisiae Swi/Snf complex; endogenous protein; Part of the SWIB domain was homology modelled; For cryo-EM the complex was cross-linked with 1 mM BS3; source: endogenous, S. cerevisiae; purified as part of the Swi/Snf complex through Snf6-3Flag (ANTI-FLAG M2 resin, Superose 6)) MSKVMKPSNGKGSRKSSKAATPDTKNFFHAKKKDPVNQDKANNASQITPTVPHSHPSDMVIPDHLAELIPELYSFQQLVDSEKRLDHFIHLRNLHMKRMVAQWERSKLSQEFLYPHLNFPNVKFLRIFISNVSENQPWQMDTNNEADLMALENATWTMRIEGRLLDNVQANDPAREKFSSFIESIVVDFKNKENDNVPSTKFNAAPEENATEGPSDKKLNLNLPLQFSLPNGDNSTTTNTDQNNATMGEETAKKDMSSTTPKLESVKWQYDPNNPVDFDGLDIKRVGSENVECTISILRKSSPEEPFMSYSPQLTAIIGLKSGTSHDAIFSIYKYIHLNELLTNDESAFENLMGNRNNHNSNTSTSKMLDAASSQVSIVKLDTQLITLLPSSLKESSPDTMKLTDLLSLINSTHLLPLQPIEIDYTVRVDKASTYGELVLDIEVPDVNALKFNNTQRESQIGAAELNENARELEQIKPKIALQDKEITSVLSNLHESNKRYRFFKKISEDPVKALNECIASTSNALKVLSGDEGYNEDMVRRANFYKENEAMLRENIEVILSNGRM
binds			B1
binds	binds		Snf6 with a C-terminal 3-Flag tag (natural protein, S. cerevisiae, UniProt P18888 1-332, looked up, Snf6, subunit of the S. cerevisiae Swi/Snf complex; expressed from its own locus; Bait of the purification; For cryo-EM the complex was cross-linked with 1 mM BS3; source: endogenous locus tagged by homologous recombination, S. cerevisiae; purified (ANTI-FLAG M2 resin, FLAG peptide elution, Superose 6); not shown: 3-Flag, C-terminal, kept) MGVIKKKRSHHGKASRQQYYSGVQVGGVGSMGAINNNIPSLTSFAEENNYQYGYSGSSAGMNGRSLTYAQQQLNKQRQDFERVRLRPEQLSNIIHDESDTISFRSNLLKNFISSNDAFNMLSLTTVPCDRIEKSRLFSEKTIRYLMQKQHEMKTQAAELQEKPLTPLKYTKLIAAAEDGSRSTKDMIDAVFEQDSHLRYQPDGVVVHRDDPALVGKLRGDLREAPADYWTHAYRDVLAQYHEAKERIRQKEVTAGEAQDEASLQQQQQQDLQQQQQVVTTVASQSPHATATEKEPVPAVVDDPLENMFGDYSNEPFNTNFDDEFGDLDAVFF
